The values below come from patent publication US20220267464A1.

Assay [1] addresses human CEACAM5 (carcinoembryonic antigen, CEA) on cells (human) (UniProt P06731). Put plainly: cell-based or functional assay.
Assay [2] has as its target cynomolgus monkey CEACAM5 on CHO-k1-cynoCEACAM5 clone 8 cells (cynomolgus monkey). Put plainly: cell-based or functional assay. On the set-up: AUC of activation curve, Jurkat-hu4-1BB-NFκB-luc2, no CEA+ cells / AUC of activation curve, Jurkat-hu4-1BB-NFκB-luc2 with CHO-k1-cyno CEACAM5 clone 8: unit not given beside the values.
The target of assay [3] is human CEACAM5 (carcinoembryonic antigen, CEA) on cells (human) (UniProt P06731). The assay can be described thus: cell-based or functional assay. On the set-up: AUC of activation curve, Jurkat-hu4-1BB-NFκB-luc2, no CEA+ cells / AUC of activation curve, Jurkat-hu4-1BB-NFκB-luc2 with CHO-k1-cyno CEACAM5 clone 8: unit not given beside the values.
Assay [4] deals with human 4-1BB on Jurkat-hu4-1BB-NFκB-luc2 reporter cells (human) (UniProt Q07011). Put plainly: cell-based or functional assay. Further details: AUC of activation curve, Jurkat-hu4-1BB-NFκB-luc2, no CEA+ cells / AUC of activation curve, Jurkat-hu4-1BB-NFκB-luc2 with CHO-k1-cyno CEACAM5 clone 8: unit not given beside the values.
Assay [5] has as its target human CEACAM5 (carcinoembryonic antigen, CEA) on cells (human) (UniProt P06731). The assay can be described thus: flow cytometry, MKN45 cells. On the set-up: unit not given beside the values. A general note: Flow cytometry measures light scatter and fluorescence of single cells or particles in a stream.
The target is the same in assay [6]. The assay can be described thus: flow cytometry, CHO-k1-huCEACAM5 clone 11. On the set-up: unit not given beside the values.
For assay [7] the target is unchanged. Put plainly: flow cytometry, CHO-k1-huCEACAM5 clone 11. Further details: unit not given beside the values. This is another data set of the same source.
Assay [8] deals with cynomolgus monkey CEACAM5 on CHO-k1-cynoCEACAM5 clone 8 cells (cynomolgus monkey). The assay can be described thus: flow cytometry, CHO-k1-cynoCEACAM5 clone 8. Further details: unit not given beside the values.
The target in assay [9] is human CEACAM5 (carcinoembryonic antigen, CEA) on cells (human) (UniProt P06731). Put plainly: flow cytometry, CHO-k1-huCEACAM5 clone 13. On the set-up: unit not given beside the values.
Assay [10] has as its target cynomolgus monkey CEACAM5 on CHO-k1-cynoCEACAM5 clone 8 cells (cynomolgus monkey). Put plainly: flow cytometry, CHO-k1-cynoCEACAM5 clone 8. On the set-up: unit not given beside the values. This is another data set of the same source.
For assay [11], the target named is human CEACAM5 (carcinoembryonic antigen, CEA) on cells (human) (UniProt P06731). Put plainly: flow cytometry, CHO-k1-huCEACAM5 clone 17. Further details: unit not given beside the values.
The target is the same in assay [12]. The assay can be described thus: flow cytometry, CHO-k1-huCEACAM5 clone 12. On the set-up: unit not given beside the values.
For assay [13] the target is unchanged. Put plainly: flow cytometry, CHO-k1-huCEACAM5 clone 12. On the set-up: unit not given beside the values. This is another data set of the same source.

Where two headings read alike, the source gives them in different places.

human CEACAM5 (carcinoembryonic antigen, CEA) on cells (human), sequence (P06731 35-685 E398K limits assumed): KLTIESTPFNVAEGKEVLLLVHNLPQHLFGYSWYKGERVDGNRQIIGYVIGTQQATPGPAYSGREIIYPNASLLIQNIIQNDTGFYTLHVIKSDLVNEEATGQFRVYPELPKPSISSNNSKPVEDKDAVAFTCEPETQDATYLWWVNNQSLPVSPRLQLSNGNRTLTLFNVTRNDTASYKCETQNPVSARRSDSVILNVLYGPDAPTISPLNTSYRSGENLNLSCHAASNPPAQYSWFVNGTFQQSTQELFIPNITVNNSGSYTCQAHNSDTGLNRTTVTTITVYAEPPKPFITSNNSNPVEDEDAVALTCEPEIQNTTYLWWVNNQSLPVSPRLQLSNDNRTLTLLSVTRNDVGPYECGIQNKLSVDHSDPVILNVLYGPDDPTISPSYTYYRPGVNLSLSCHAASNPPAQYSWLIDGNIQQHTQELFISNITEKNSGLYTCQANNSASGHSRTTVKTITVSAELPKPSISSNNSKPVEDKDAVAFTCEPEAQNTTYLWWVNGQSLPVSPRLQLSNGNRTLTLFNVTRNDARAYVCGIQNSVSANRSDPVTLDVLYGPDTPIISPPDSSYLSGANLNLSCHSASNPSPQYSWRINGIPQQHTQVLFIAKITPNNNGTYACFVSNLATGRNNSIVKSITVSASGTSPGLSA
human 4-1BB on Jurkat-hu4-1BB-NFκB-luc2 reporter cells (human), sequence (Q07011 24-255 limits assumed): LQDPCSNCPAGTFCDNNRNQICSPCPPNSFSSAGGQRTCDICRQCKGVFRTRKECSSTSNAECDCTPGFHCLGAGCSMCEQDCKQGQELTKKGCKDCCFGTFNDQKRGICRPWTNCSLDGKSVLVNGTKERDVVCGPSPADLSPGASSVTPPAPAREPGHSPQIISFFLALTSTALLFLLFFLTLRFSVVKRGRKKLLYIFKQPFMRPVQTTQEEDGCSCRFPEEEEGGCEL

On to CEA(sm9b)-4-1BBL (Fc fusion), for which, in assay [1], the EC50, NFκB-luciferase in Jurkat-hu4-1BB-NFκB-luc2 with CHO-k1-human CEACAM5 clone 11 worked out at 0.05 nM and the EC50, NFκB-luciferase in Jurkat-hu4-1BB-NFκB-luc2 with CHO-k1-human CEACAM5 clone 12 amounted to 0.03 nM. This substance also registered an AUC of activation curve, Jurkat-hu4-1BB-NFκB-luc2 with CHO-k1-cyno CEACAM5 clone 8 in assay [2] of 3970. Also, in assay [3], the AUC of activation curve, Jurkat-hu4-1BB-NFκB-luc2 with CHO-k1-human CEACAM5 clone 11 was found to be 162000 and the AUC of activation curve, Jurkat-hu4-1BB-NFκB-luc2 with CHO-k1-human CEACAM5 clone 12 was determined as 164000. The substance further yielded an AUC of activation curve, Jurkat-hu4-1BB-NFκB-luc2, no CEA+ cells in assay [4] of 2810.

The substance “P1AD5108-002 DP47 huIgG1 PG LALA (Isotype control) (antibody)” yielded an AUC in assay [5] of 420.

For DP47-4-1BBL (Fc fusion), the AUC in [6] came out at 1300; in [7], 148; in [8], 520; in assay [9] it was 752; in assay [10] it was 11; in [11], 430. Also, the AUC in assay [12] worked out at 700; in assay [13], 140. In [2], this substance yielded an AUC of activation curve, Jurkat-hu4-1BB-NFκB-luc2 with CHO-k1-cyno CEACAM5 clone 8 of 4710. The AUC of activation curve, Jurkat-hu4-1BB-NFκB-luc2 with CHO-k1-human CEACAM5 clone 11 in [3] turned out to be 8640. Also, the AUC of activation curve, Jurkat-hu4-1BB-NFκB-luc2 with CHO-k1-human CEACAM5 clone 12 in [3] stood at 6640. This substance came in with an AUC of activation curve, Jurkat-hu4-1BB-NFκB-luc2, no CEA+ cells in [4] of 2930.

In the case of “CEA(sm9b)-4-1BBL single chain (Fc fusion)”, in assay [1], the EC50, NFκB-luciferase in Jurkat-hu4-1BB-NFκB-luc2 with CHO-k1-human CEACAM5 clone 11 came to 0.09 nM and the EC50, NFκB-luciferase in Jurkat-hu4-1BB-NFκB-luc2 with CHO-k1-human CEACAM5 clone 12 worked out at 0.07 nM. In assay [2], this substance showed an AUC of activation curve, Jurkat-hu4-1BB-NFκB-luc2 with CHO-k1-cyno CEACAM5 clone 8 of 2820. For the same substance, in assay [3], the AUC of activation curve, Jurkat-hu4-1BB-NFκB-luc2 with CHO-k1-human CEACAM5 clone 11 stood at 150000 and the AUC of activation curve, Jurkat-hu4-1BB-NFκB-luc2 with CHO-k1-human CEACAM5 clone 12 amounted to 146000. In addition, the AUC of activation curve, Jurkat-hu4-1BB-NFκB-luc2, no CEA+ cells in assay [4] came to 1980.

Substance CEA (MEDI-565)-4-1BBL (Fc fusion) showed an AUC of activation curve, Jurkat-hu4-1BB-NFκB-luc2, no CEA+ cells in [4] of 2270.
